# From patent publication US20140357844A1 (RINAT NEUROSCIENCE, published 2014)
# Legend:
# [1] = molecular target: T1, Trop-2 on Trop-2 expressing tumor cells (human, UniProt P09758 27-323); experiment: flow cytometry, A431 cells (Trop-2+++), 1 ug antibody per 300,000 cells
# T1 construct: Endogenous Trop-2 of human tumour cell lines; also called Trop-2 positive tumor cells; A431 (Trop-2+++)
# T1 sequence: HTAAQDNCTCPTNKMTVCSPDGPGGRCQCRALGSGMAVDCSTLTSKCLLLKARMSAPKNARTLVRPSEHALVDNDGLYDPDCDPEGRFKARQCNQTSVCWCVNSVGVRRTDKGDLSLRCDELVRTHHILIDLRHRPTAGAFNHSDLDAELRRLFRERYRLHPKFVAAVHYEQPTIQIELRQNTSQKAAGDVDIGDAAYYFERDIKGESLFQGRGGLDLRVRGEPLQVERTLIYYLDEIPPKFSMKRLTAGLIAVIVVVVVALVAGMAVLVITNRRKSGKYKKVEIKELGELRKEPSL
# [2] = molecular target: T1, Trop-2 on Trop-2 expressing tumor cells; experiment: flow cytometry, Colo205 cells (Trop-2+), 1 ug antibody per 300,000 cells
# [3] = molecular target: T2, cynomolgus monkey Trop-2-hFc (cynomolgus monkey, UniProt A0A2K5UE71 27-274); experiment: SPR (Biacore T200), cynomolgus Trop-2-hFc captured by anti-human Fc, Fab as analyte
# T2 construct: also called cynoTrop-2; not shown: human Fc
# T2 sequence: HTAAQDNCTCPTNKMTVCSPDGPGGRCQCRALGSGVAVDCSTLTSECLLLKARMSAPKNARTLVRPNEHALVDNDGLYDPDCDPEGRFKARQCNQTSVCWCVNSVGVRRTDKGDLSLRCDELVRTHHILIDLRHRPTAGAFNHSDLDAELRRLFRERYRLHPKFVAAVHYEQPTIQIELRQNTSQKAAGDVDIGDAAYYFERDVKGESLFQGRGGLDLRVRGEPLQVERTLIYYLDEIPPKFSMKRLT
# [4] = molecular target: T3, monovalent human Trop2-ECD antigen (human, UniProt P09758 27-274); experiment: SPR (ProteOn XPR36), amine-coupled Fab, monovalent human Trop2-ECD as analyte, 25 C;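 further: GLC sensor chip, 3 min association then 15 min buffer dissociation, kinetics fit with a 1:1 Langmuir model, buffer of 10 mM sodium phosphate with 150 mM NaCl and 0.05% Tween-20 at pH 7.4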
# T3 construct: also called human Trop2-ECD (Extracellular Domain)
# T3 sequence: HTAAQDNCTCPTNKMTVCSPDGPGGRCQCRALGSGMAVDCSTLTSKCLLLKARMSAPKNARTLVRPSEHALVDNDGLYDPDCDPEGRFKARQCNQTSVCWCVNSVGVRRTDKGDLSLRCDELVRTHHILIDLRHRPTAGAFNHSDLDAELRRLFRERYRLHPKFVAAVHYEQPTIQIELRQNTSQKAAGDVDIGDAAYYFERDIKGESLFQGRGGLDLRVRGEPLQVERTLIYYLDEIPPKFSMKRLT
# Procedure: Analysis of Fab/human Trop2-ECD (Extracellular Domain) interactions was performed using a Bio-Rad Proteon XPR36Surface Plasmon Resonance (SPR) biosensor (Bio-Rad, Hercules, Calif.) equipped with a GLC sensor chip. The assay temperature was 25° C., and the assay buffer was 10 mM Sodium Phosphate, 150 mM NaCl, 0.05% Tween-20, pH 7.4. […] In each analysis cycle, monovalent human Trop2-ECD antigen was flowed at 30 μL/min over the immobilized Fabs for 3 minutes followed by a buffer wash for 15 minutes to monitor dissociation of the Fab/Trop2 complex. The sensor surface was regenerated between analysis cycles, using three 18-second injections of a 2:1 mixture (by volume) of Pierce IgG Elution buffer:4 M NaCl (Pierce, Rockford, Ill.). […] The resulting data were fit to a 1:1 Langmuir binding model using the Proteon evaluation software.
# human Trop-2-hFc = molecular target: T4, human Trop-2-hFc (human, UniProt P09758 27-274); experiment: SPR (Biacore T200), human Trop-2-hFc captured by anti-human Fc, Fab as analyte
# T4 construct: also called huTrop-2; human Trop-2 human Fc fusion protein; not shown: human Fc
# T4 sequence: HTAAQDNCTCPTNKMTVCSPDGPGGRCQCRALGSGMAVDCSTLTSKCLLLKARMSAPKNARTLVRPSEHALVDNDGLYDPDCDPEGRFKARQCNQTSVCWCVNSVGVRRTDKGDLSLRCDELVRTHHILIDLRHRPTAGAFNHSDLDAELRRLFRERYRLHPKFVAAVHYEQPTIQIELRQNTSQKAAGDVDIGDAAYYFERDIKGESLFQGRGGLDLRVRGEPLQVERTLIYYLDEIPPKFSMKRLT
Binder,% positive [1] [%],MFI [1],% positive [2] [%],MFI [2],Kd [3] [nM],koff [3] [s⁻¹],kon [3] [M⁻¹ s⁻¹],Kd [4] [nM],koff [4] [s⁻¹],kon [4] [M⁻¹ s⁻¹],t1/2 [4] [min],Kd (human Trop-2-hFc) [nM],koff (human Trop-2-hFc) [s⁻¹],kon (human Trop-2-hFc) [M⁻¹ s⁻¹]
"h6G11_WT antibody (human IgG1) (antibody, V domains shown, Human IgG1) VH: QVQLVQSGAEVKKPGASVKVSCKASGYTFTSYWINWVRQAPGQGLEWMGNIYPSDSYSNYNQKFKDRVTMTRDTSTSTVYMELSSLRSEDTAVYYCARGSSFDYWGQGTLVTVSS VL: EIVLTQSPATLSLSPGERATLSCRASQTIGTSIHWYQQKPGQAPRLLIYYASESISGIPARFSGSGSGTDFTLTISSLEPEDFAVYYCQQSNSWPFTFGQGTKLEIK",99.9,19600,99,1720,,,,,,,,,,
"h6G11_FKG_SF antibody (human IgG1) (antibody, V domains shown) VH: QVQLVQSGAEVKKPGASVKVSCKASGYTFTSYWINWVRQAPGQGLEWMGNIFPSDSYSNYNKKFKDRVTMTRDTSTSTVYMELSSLRSEDTAVYYCARGSGFDYWGQGTLVTVSS VL: EIVLTQSPATLSLSPGERATLSCRASQTIGTSIHWYQQKPGQAPRLLIYYASESISGIPARFSGSGSGTDFTLTISSLEPEDFAVYYCSQSFSWPFTFGQGTKLEIK",99.9,20300,100,2060,,,,,,,,,,
"h7E6_SVG Fab (Fab, V domains shown, also called DG (h7E6_SVG)) VH: QVQLQESGPGLVKPSETLSLTCTVSGGSISSYGVHWIRQPPGKGLEWIGVIWTSGVTDYNSALMGRVTISVDTSKNQFSLKLSSVTAADTAVYYCARDGDYDRYTMDYWGQGTLVTVSS VL: DIVMTQSPDSLAVSLGERATINCRASKSVSTSGYSYMHWYQQKPGQPPKLLIYLASNLESGVPDRFSGSGSGTDFTLTISSLQAEDVAVYYCQHSRELPYTFGQGTKLEIK",,,,,7,0.00189,265000,4.1,0.00069,170000,17,4.46,0.000435,97600
"h7E6_SVG30 Fab (Fab, V domains shown, also called DE (h7E6_SVG30)) VH: QVQLQESGPGLVKPSETLSLTCTVSGGSISSYGVHWIRQPPGKGLEWIGVIWTSGVTDYNSALMGRVTISVDTSKNQFSLKLSSVTAADTAVYYCARDEDYDRYTMDYWGQGTLVTVSS VL: DIVMTQSPDSLAVSLGERATINCRASKSVSTSGYSYMHWYQQKPGQPPKLLIYLASNLESGVPDRFSGSGSGTDFTLTISSLQAEDVAVYYCQHSRELPYTFGQGTKLEIK",,,,,,,,> 75,0.064,< 850000,0.18,,,
"h7E6-WT recombinant Fab fragment (Fab, V domains shown, Recombinant Fab) VH: QVQLQESGPGLVKPSETLSLTCTVSGGSISSYGVHWIRQPPGKGLEWIGVIWTGGSTDYNSALMSRVTISVDTSKNQFSLKLSSVTAADTAVYYCARDGDYDRYTMDYWGQGTLVTVSS VL: DIVMTQSPDSLAVSLGERATINCRASKSVSTSGYSYMHWYQQKPGQPPKLLIYLASNLESGVPDRFSGSGSGTDFTLTISSLQAEDVAVYYCQHSRELPYTFGQGTKLEIK",,,,,44,0.00635,144000,,,,,21.1,0.00294,139000
"h7E6_L recombinant Fab fragment (Fab, V domains shown, Recombinant Fab) VH: QVQLQESGPGLVKPSETLSLTCTVSGGSISSYGVHWIRQPPGKGLEWIGVIWTGGSTDYNSALMSRVTISVDTSKNQFSLKLSSVTAADTAVYYCARDGDYDRYTMDYWGQGTLVTVSS VL: DIVMTQSPDSLAVSLGERATINCRASKSVSTSLYSYMHWYQQKPGQPPKLLIYLASNLESGVPDRFSGSGSGTDFTLTISSLQAEDVAVYYCQHSRELPYTFGQGTKLEIK",,,,,2.66,0.000335,126000,,,,,1.15,0.00015,130000
"h7E6_SVGL recombinant Fab fragment (Fab, V domains shown, Recombinant Fab) VH: QVQLQESGPGLVKPSETLSLTCTVSGGSISSYGVHWIRQPPGKGLEWIGVIWTSGVTDYNSALMGRVTISVDTSKNQFSLKLSSVTAADTAVYYCARDGDYDRYTMDYWGQGTLVTVSS VL: DIVMTQSPDSLAVSLGERATINCRASKSVSTSLYSYMHWYQQKPGQPPKLLIYLASNLESGVPDRFSGSGSGTDFTLTISSLQAEDVAVYYCQHSRELPYTFGQGTKLEIK",,,,,0.57,7.42e-05,130000,,,,,0.25,3.27e-05,131000
